Key:
[1] = target: recombinant human soluble MSLN (rHuMSLN sol.) (human) (UniProt Q13421); test: published value quoted in the Biacore column; the sheet does not name its source
[2] = target: native human MSLN expressed on the cell surface (N87 / NCI-N87 tumor cells) (human) (UniProt Q13421); test: KinExA, native hu MSLN on cells
[3] = target: recombinant human soluble MSLN (rHuMSLN sol.) (human) (UniProt Q13421); test: Biacore, soluble human MSLN

Sequence of recombinant human soluble MSLN (rHuMSLN sol.) (human) (Q13421 296-606 limits assumed): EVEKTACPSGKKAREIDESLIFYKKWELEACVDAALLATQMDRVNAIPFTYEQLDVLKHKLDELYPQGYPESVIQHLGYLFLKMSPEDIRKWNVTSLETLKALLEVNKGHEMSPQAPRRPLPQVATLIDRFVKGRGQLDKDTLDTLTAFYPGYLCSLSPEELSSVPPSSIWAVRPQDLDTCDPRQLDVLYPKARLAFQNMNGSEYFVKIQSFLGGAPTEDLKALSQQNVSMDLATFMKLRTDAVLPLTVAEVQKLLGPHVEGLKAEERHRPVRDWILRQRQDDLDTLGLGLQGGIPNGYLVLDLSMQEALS
Sequence of native human MSLN expressed on the cell surface (N87 / NCI-N87 tumor cells) (human) (Q13421 296-606 limits assumed): as above

Kd [1]: 1.5 nM | Kd [2]: 0.0022 nM | Kd [3]: 0.16 nM
Substance: MORAb-009 (antibody)
